For assay [1], the target named is T1, ALK4-Fc:ActRIIB-Fc heterodimer (human, UniProt P36896 24-126; Q13705 20-134).
T1 construct: also called ALK4-Fc:ActRIIB-Fc heterodimeric complex; ALK4:ActRIIB heterodimer; not shown: Linkers (TGGG on ALK4, GGG on ActRIIB) and the engineered Fc pair; They differ only in Fc substitutions
T1 sequence 1: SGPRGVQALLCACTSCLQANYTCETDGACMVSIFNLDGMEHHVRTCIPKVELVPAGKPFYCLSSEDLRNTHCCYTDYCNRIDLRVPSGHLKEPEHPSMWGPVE
T1 sequence 2: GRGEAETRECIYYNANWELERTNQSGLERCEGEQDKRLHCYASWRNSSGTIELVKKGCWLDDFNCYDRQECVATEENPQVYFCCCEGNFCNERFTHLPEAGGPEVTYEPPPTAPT
Briefly: Biacore, receptor captured by anti-Fc. Here is the method: (§1) A Biacore™-based binding assay was used to compare ligand binding selectivity of the ALK4-Fc:ActRIIB-Fc heterodimeric complex described above with that of ActRIIB-Fc and ALK4-Fc homodimer complexes. The ALK4-Fc:ActRIIB-Fc heterodimer, ActRIIB-Fc homodimer, and ALK4-Fc homodimer were independently captured onto the system using an anti-Fc antibody. Ligands were injected and allowed to flow over the captured receptor protein. Results are summarized in the table below, in which ligand off-rates (kd) most indicative of effective ligand traps are denoted in bold font.
A general note: In SPR one partner is held on a chip, and binding of the other changes the refractive index at the surface.

The target of assay [2] is T2, GDF11 (UniProt O95390 299-407).
T2 construct: also called BMP11
T2 sequence (looked up): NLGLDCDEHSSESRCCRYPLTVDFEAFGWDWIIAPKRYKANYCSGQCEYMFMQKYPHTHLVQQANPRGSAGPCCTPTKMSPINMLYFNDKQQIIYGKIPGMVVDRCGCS
The experiment in a line: Biacore, receptor captured by anti-Fc; footnote: very low signal. The method, then:
as §1

Assay [3] deals with T2, GDF11. Briefly: Biacore, receptor captured by anti-Fc. The method, then:
as §1

For the next assay, the target named is T3, activin A (UniProt P08476 311-426).
T3 sequence (looked up): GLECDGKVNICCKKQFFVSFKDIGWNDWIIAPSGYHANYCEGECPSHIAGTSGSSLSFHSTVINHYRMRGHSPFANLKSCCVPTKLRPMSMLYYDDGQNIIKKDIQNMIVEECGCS
The experiment in a line: cell-based or functional assay.

For assay [4], the target named is T2, GDF11. Briefly: cell-based or functional assay.

Positions count from the first letter of the chain named.

As a reminder, the Kd is the free concentration of one partner at which half of the binding sites on the other are occupied at equilibrium, for simple one-to-one binding. Low readings indicate a tighter complex, high ones a looser complex. What is called koff is the first-order rate constant of dissociation. As a reminder, the kon is the second-order rate constant of association. A higher kon goes with faster complex formation.

B1: BMP6 (ligand, UniProt P22004 375-513, looked up)
chain: SASSRRRQQSRNRSTQSQDVARVSSASDYNSSELKTACRKHELYVSFQDLGWQDWIIAPKGYAANYCDGECSFPLNAHMNATNHAIVQTLVHLMNPEYVPKPCCAPTKLNAISVLYFDDNSNVILKKYRNMVVRACGCH
B1: in assay [1], the Kd worked out at 2.7 nM, the koff is 0.0055 s⁻¹ and the kon turned out to be 2e+06 M⁻¹ s⁻¹.

B2: ALK4-Fc homodimer (Fc fusion)
chain: T1 sequence 1
notes: not shown: linker and Fc of the homodimer not specified
In the assay with GDF11 [2], B2 displayed a Kd of 0.27 nM. The kon in the assay with GDF11 [3] is 4.8e+06 M⁻¹ s⁻¹.

B3: ActRIIB-Fc A64 20-134 (Fc fusion)
chain: GRGEAETRECIYYNANWELERTNQSGLERCEGEQDKRLHCYASWANSSGTIELVKKGCWLDDFNCYDRQECVATEENPQVYFCCCEGNFCNERFTHLPEAGGPEVTYEPPPTAPTGGGTHTCPPCPAPELLGGPSVFLFPPKPKDTLMISRTPEVTCVVVDVSHEDPEVKFNWYVDGVEVHNAKTKPREEQYNSTYRVVSVLTVLHQDWLNGKEYKCKVSNKALPVPIEKTISKAKGQPREPQVYTLPPSREEMTKNQVSLTCLVKGFYPSDIAVEWESNGQPENNYKTTPPVLDSDGSFFLYSKLTVDKSRWQQGNVFSCSVMHEALHNHYTQKSLSLSPGK
On to B3, for which the “KI, cell-based assay” value with activin A and with GDF11 [4] was about 1000 nM throughout.

B4: ActRIIB(20-134)-hFc (Fc fusion)
chain: B3 chain with A45R
B4: the “KI, cell-based assay” value with activin A and in the assay with GDF11 [4] was about 10 nM throughout.

The values above are taken from patent US20200384080A1 (published 2020).
